The source of these data is patent US20230020729A1 (Memorial Sloan Kettering, published 2023).

T1: human Fc Receptor-Like 5 (FcRL5), full length, expressed on cells (human, UniProt Q96RD9 16-977)
T1 construct: also called CD307e; IRTA2
T1 sequence: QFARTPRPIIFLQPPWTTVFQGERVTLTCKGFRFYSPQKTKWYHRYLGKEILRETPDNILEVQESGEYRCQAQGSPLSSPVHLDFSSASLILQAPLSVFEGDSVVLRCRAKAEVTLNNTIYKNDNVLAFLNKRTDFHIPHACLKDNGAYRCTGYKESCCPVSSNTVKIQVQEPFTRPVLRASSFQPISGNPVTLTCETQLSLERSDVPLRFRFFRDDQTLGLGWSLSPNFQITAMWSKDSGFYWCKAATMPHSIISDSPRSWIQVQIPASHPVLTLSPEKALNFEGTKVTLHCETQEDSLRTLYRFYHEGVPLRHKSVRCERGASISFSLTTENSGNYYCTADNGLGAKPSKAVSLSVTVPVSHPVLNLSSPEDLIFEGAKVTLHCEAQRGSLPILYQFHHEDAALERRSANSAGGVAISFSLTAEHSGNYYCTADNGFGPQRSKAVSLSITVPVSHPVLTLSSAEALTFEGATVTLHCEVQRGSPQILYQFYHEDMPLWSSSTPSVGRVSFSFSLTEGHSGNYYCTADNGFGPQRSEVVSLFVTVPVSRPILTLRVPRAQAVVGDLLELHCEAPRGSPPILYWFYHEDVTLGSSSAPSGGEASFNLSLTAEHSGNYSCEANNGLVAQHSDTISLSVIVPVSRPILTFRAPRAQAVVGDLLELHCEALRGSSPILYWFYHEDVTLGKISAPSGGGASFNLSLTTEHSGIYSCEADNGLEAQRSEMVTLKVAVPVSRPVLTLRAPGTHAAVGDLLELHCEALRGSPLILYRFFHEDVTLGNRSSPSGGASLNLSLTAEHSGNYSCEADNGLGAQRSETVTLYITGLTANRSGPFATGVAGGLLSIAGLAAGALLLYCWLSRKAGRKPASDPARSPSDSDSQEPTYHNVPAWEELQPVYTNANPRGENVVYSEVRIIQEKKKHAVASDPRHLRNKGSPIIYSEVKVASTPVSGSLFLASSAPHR

B1: ET200-017 scFv (scFv)
scFv: SYVLTQPPSVSVAPGKTARITCGGNNIGSKSVHWYQQKPGQAPVLVVYDDSDRPSGIPERFSGSNSGNTATLSISRVEAGDEADYYCQVWDSSSDHTVFGTGTKVTVLGSRGGGGSGGGGSGGGGSLEMAQVQLQQWGAGLLKPSETLSLTCAVYGGSFSGYYWSWIRQPPGKGLEWIGEINHSGSTNYNPSLKSRVTISVDTSKNQFSLKLSSVTAADTAVYYCARYYPGMDMWGQGTLVTVSS
notes: VL-linker-VH; screened as scFv phage clone
B2: ET200-002 scFv (scFv)
scFv: NFMLTQPHSVSESPGKTVTISCTRSSGSIASNYVQWYQQRPGSAPTTVIYEDNQRPSGVPDRFSGSIDSSSNSASLTISGLKTEDEADYYCQSYDSSNSVVFGGGTKLTVLGSRGGGGSGGGGSGGGGSLEMAQVQLVQSGTEVKKPGASVRVACKASGYPFNKYDINWVRQAPGQGLEWMGGIIPIFRTTNYAQKFQGRVTITADESTSTAYMELSSLRSEDTAVYYCAREWFYWDIWGQGTLVTVSS
notes: as for B1
B3: ET200-020 scFv (scFv)
scFv: QSVVTQPPSVSAAPGQKVTISCSGSTSNIGNNDVSWYQQLPGTAPKLLIYDNNKRPSGIPDRFSGSKSGTSATLGITGLQTGDEADYYCGTWDSSVSASWVFGRGTKLTVLGSRGGGGSGGGGSGGGGSLEMAQVQLVQSGAEVKKPGASVKVSCKASGYTFTSYGISWVRQAPGQGLEWMGWISAYNGNTNYPQKLQGRVTMTTDPSTSTAYMELRSLRSDDTAVYYCARSMTSFDYWGQGTLVTVSS
notes: as for B1
B4: ET200-019 scFv (scFv)
scFv: NFMLTQPHSVSESPGKTVTISCTRSSGSIASNYVQWYQQRPGSAPTTVIYEDNQRPSGVPDRFSGSIDSSSNSASLTISGLKTEDEADYYCQSYDSSNSWVFGGGTKLTVLGSRGGGGSGGGGSGGGGSLEMAQVQLVQSGAEVKRPGSSVKVSCTASGGTFSSDAISWVRQAPGQGLEWMGGIIPMFGTANYAQKFQGRVTITADESTSTAYMELSSLRSEDTAVYYCAREGYYYPSAYLGSVLNDISSVYDEWGQGTLVTVSS
notes: as for B1
B5: ET200-015 scFv (scFv)
scFv: QSVVTQPPSVSVAPGKTARITCGGNNIGSKSVHWYQQKPGQAPVLVIYYDSDRPSGIPERFSGSNSGNTATLTISRVEAGDEADYYCQVWDSSSDVVFGGGTKLTVLGSRGGGGSGGGGSGGGGSLEMAEVQLVQSGAEVKKPGASVKVSCKASGYTFTSYGISWVRQAPGQGLEWMGWISAYNGNTNYAQKLQGRVTMTTDTSTSTAYMELRSLRSDDTAVYYCARWGGFGAVDHWGQGTLVTVSS
notes: as for B1
B6: ET200-013 scFv (scFv)
scFv: QSVVTQPPSVSGAPGQRVTISCTGSTSNIGAGYDVHWYQQLPGTAPKLLIYTNNFRPSGVPDRFSASKSGTSASLAITGLQAEDEADYYCGTWDSSLSAVVFGGGTKLTVLGSRGGGGSGGGGSGGGGSLEMAEVQLVESGTEVKKPGASVKVSCKASGYMFTSYGLNWVRQAPGQGLEWMGWISANNGKTNYAKKFQDRVTMTRDTSTSTGYMELRSLRSDDTAVYYCARHIGGSYFDRWGQGTLVTVSS
notes: as for B1
B7: ET200-023 scFv (scFv)
scFv: LPVLTQPPSVSVAPGKTARITCGGNNIGSKSVHWYQQKPGQAPVLVVYADSDRPSGIPERFSGSNSGNTATLTISRVEAGDEADYYCQVWDSSSYHNYVFGTGTKVTVLGSRGGGGSGGGGSGGGGSLEMAEVQLVQSGAEVKKPGASVKVSCKASGYTFTSYGISWVRQAPGQGLEWMGWISAYNGNTNYAQKLQGRVTMTTDTSTSTAYMELSSLRSEDTAMYYCARYWGFGVSDRWGQGTLVTVSS
notes: as for B1
B8: ET200-018 scFv (scFv)
scFv: QAVLTQPPSTSGTPGQRVTISCSGSSSNIGRNGVNWYQQLPGAAPKVLIYNDNQRPSGVPDRVSGSQSGSSGTLAIDGLRSEDEADYYCAAWDDSLHGVVFGGGTKLTVLGSRGGGGSGGGGSGGGGSLEMAQVQLVQSGAEVKKPGASVKVSCKVSGYTLNELSMHWVRQAPGKGLEWMGGFDPEDGETIYAQKFQGRVTMTEDTSTDTAYMELSSLRSEDTAVYYCARGGYGDSWGQGTLVTVSS
notes: as for B1
B9: ET200-014 scFv (scFv)
scFv: SYVLTQPPSVSVAPGKTARITCGGNNIGSKSVHWYQQKPGQAPVLVIYYDSDRPSGIPERFSGSNSGNTATLTISRVEAGDEADYYCQVWDSSSDHYVFGTGTKVTVLGSRGGGGSGGGGSGGGGSLEMAEVQLVETGGGLVQPGGSLRLSCAASGFTFSSYAMSWVRQAPGKGLEWVSAISGSDGSTYYADSVKGRFTISRDNSKNTLYLQMNSLRDEDTAVYYCARSHEANLVGDWWGQGTLVTVSS
notes: as for B1
B10: ET200-016 scFv (scFv)
scFv: SSELTQDPAVSVALGQTVKITCQGDSLTDYHATWYQQKPGQAPVAVIYATNNRPTGIPDRFSGSSSGNTASLTITGAQAEDEADYYCNSRDSGTDEVLFGGGTKLTVLGSRGGGGSGGGGSGGGGSLEMAEVQLVETGGGLVKPGGSLRLSCAASGFTFSSYSMNWVRQAPGKGLEWVSSISSSSSYIYYADSVKGRFTISRDNAKNSLYLQMNSLRAEDTAVYYCARGQGYDYWGQGTLVTVSS
notes: as for B1
B11: ET200-039 scFv (scFv)
scFv: NFMLTQPHSVSESPGKTVTISCTRSSGSIASNYVQWYQQRPGSSPTTVIYEDNQRPSGVPDRFSGSIDSSSNSASLTISGLKTEDEADYYCQSYDSSNWVFGGGTKLTVLGSRGGGGSGGGGSGGGGSLEMAEVQLVQSGAEVKKPGSSVKVSCKASGGTFSSYAISWVRQAPGQGLEWMGGIIPIFGTANYAQKFQGRVTITADESTSTAYMELSSLRSEDTAVYYCARSNYYYNDYWGQGTLVTVSS
notes: VL-linker-VH; screened as scFv phage clone; also called ET200-39
B12: ET200-022 scFv (scFv)
scFv: QSVVTQPPSVSAAPGQKVTISCSGSSSNIGNNYVSWYQQLPGTAPKLLIYDNNKRPSGIPDRFSGSKSGTSATLGITGLQTGDEADYYCGTWDSSLGAPYVFGTGTKVTVLGSRGGGGSGGGGSGGGGSLEMAEVQLVQSWGGSEQPGRSLRLSCAASGFTFDDYAMHWVRQAPGKGLEWVSGISWNSGSIGYADSVKGRFTISRDNAKNSLYLQMNSLRAEDTAMYYCARYRQVGSAYDSWGQGTLVTVSS
notes: as for B1
B13: ET200-012 scFv (scFv)
scFv: QSVLTQPPSVSAAAGQKVTISCSGSDSNIGNNYVSWYQHLPGTAPKLLIYDVKNRPSGIPDRFSGSKSGSSATLGIAGLQPGDEADYYCGTWDSRLDAYVFGTGTKVTVLGSRGGGGSGGGGSGGGGSLEMAQMQLVQSGAEVKKPGASVKVSCKTSGFPFNIFGITWVRQAPGQGLEWMGWISGYNGNTDYPQKFQGRVTMSTDTSTSTAYMELRNLKSDDTAVYYCARGAYGGMDTWGQGTLVTVSS
notes: as for B1
B14: ET200-021 scFv (scFv)
scFv: QSVLTQPPSVSAAPGQKVTISCSGSNSNIGNNYVSWYQQLPGTAPKLLIYDNNKRPSGIPDRFSGSRSGTSATLGITGLQTGDEADYYCGTWNTTVTPGYVFGTGTKVTVLGSRGGGGSGGGGSGGGGSLEMAEVQLVQSGAEVKKPGASVKVSCKASGYTFTSYGISWVRQAPGQGLEWMGWISAYNGNTNYAQKLQGRVTMTTDTSTSTAYMELRSLRSDDTAMYYCARSVYDLDTWGQGTLVTVSS
notes: as for B1

The assay deals with T1, human Fc Receptor-Like 5 (FcRL5), full …. Put plainly: scFv phage: ELISA on His-tag FcRL5, flow cytometry on FcRL5-overexpressing 3T3 and Raji cells. Background: ELISA stands for enzyme-linked immunosorbent assay.
Consider B1, for which the binding result is on record as “binds”. As for B2, the entry is “binds”. For the molecule B3, the binding result is recorded as “binds”. B4: the binding result is given as “binds”. Regarding B5, the binding result is reported as “binds”. As for B6, the entry is “binds”; as for B7, “binds”. As for B8, the entry is “binds”. B9: the binding result was “binds”. As for B10, the entry is “binds”; as for B11, “binds”. In the case of B12 it was “binds”; in that of B13, “binds”.

With B14, the binding result is on record as “binds”.
